Earlier results as cited in publication PMC3157396, “Molecular Basis for the Recognition of Adenomatous Polyposis Coli by the Discs Large 1 Protein” (PLoS ONE, 2011).

Tested on: PDZ1 and PDZ2 domains of PSD-95
Text: The 3D structures of the three PDZ domains of DLG1 have been determined in the free forms [13]–[15]. They share very similar structures, and the ligand binding pockets are also conserved. […] The residues in the β2/β3 loop ...

change of binding affinity on deletion of six residues from the β2/β3 loops (in words): decreases the binding affinity
B1: Kv1.4 potassium channel: Kv1.4 potassium channel (protein, UniProt P22459 1-653, looked up)
Potassium voltage-gated …: MEVAMVSAESSGCNSHMPYGYAAQARARERERLAHSRAAAAAAVAAATAAVEGSGGSGGGSHHHHQSRGACTSHDPQSSRGSRRRRRQRSEKKKAHYRQSSFPHCSDLMPSGSEEKILRELSEEEEDEEEEEEEEEEGRFYYSEDDHGDECSYTDLLPQDEGGGGYSSVRYSDCCERVVINVSGLRFETQMKTLAQFPETLLGDPEKRTQYFDPLRNEYFFDRNRPSFDAILYYYQSGGRLKRPVNVPFDIFTEEVKFYQLGEEALLKFREDEGFVREEEDRALPENEFKKQIWLLFEYPESSSPARGIAIVSVLVILISIVIFCLETLPEFRDDRDLVMALSAGGHGGLLNDTSAPHLENSGHTIFNDPFFIVETVCIVWFSFEFVVRCFACPSQALFFKNIMNIIDIVSILPYFITLGTDLAQQQGGGNGQQQQAMSFAILRIIRLVRVFRIFKLSRHSKGLQILGHTLRASMRELGLLIFFLFIGVILFSSAVYFAEADEPTTHFQSIPDAFWWAVVTMTTVGYGDMKPITVGGKIVGSLCAIAGVLTIALPVPVIVSNFNYFYHRETENEEQTQLTQNAVSCPYLPSNLLKKFRSSTSSSLGDKSEYLEMEEGVKESLCAKEEKCQGKGDDSETDKNNCSNAKAVETDV
